This passage reports self-cleavage results from the RNAGym collection of RNA variant scans (doi:10.1093/nar/gkz1192).

First the molecules themselves.
B1: CPEB3 Ribozyme (parent)
chain: UAACAGGGGGCCACAGCAGAAGCGUUCACGUCGCAGCCCCUGUCAGAUUCUGGUGAAUCUGCGAAUUCUGCUGUAUAUCUC

The variants in this data set derive from B1. Briefly: self-cleavage, relative activity (ratio to wild type); higher = more cleavage; in vitro, sequencing. Put shortly:
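Libraries of CPEB3 self-cleaving ribozyme mutants came from rounds of error-prone PCR and carried barcodes, which DNA sequencing matched to variants. In vitro transcription used T7 RNA polymerase at 37°C for 5 hours, with a further 15 min in DNase I before EDTA stopped the reaction; the ribozymes cleaved during both steps. The RNA was reverse transcribed with template switching and sequenced on Illumina. Relative activity is the cleaved/total read fraction of a variant divided by that of the unmutated ribozyme, averaged over three batches with at least 5 reads.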
As to UAACAGGGGGCCCCAGCAGAAGCGUUCAGGUCGCAGCCCCUGUCAGAUUCUGGUGAAUCUGCGAAUUCUGCUGUAUAUCUC [A13C C29G], the self-cleavage was 0.3.

On to UAACAGGGGGCCCCAGCAGAAGCGUUCACGUCGCAGCCCCUGUCAGAUUCUGGUGAAUCUGCGAAUUCUGCUGUAUAACUC [A13C U78A], for which the self-cleavage came out at 1. The result for UAACAGGGGGCCCCAGCAGAAGCGUUCACGUCGCAGCCCCUGUCAGAUUCUGGUGAAUCUGCGAAUUCUGCUGUAUACCUC [A13C U78C] reads 1.02. The result for UAACAGGGGGCCCCAGCAGAAGCGUUCACGUCGCAGCCCCUGUCAGAUUCUGGUGAAUCUGCGAAUUCUGCUGCAUAUCUC [A13C U74C] reads 1.18. The result for UAACAGGGGGCCCCAGCAGAAGCGUUCACGUCGCAGCCCCUGUCAGGUUCUGGUGAAUCUGCGAAUUCUGCUGUAUAUCUC [A13C A47G] reads 1.05.

As for UAACAGGGGGCCCCAGCAGAAGCGUUCACGUCGCAGCCCCUGUCAGCUUCUGGUGAAUCUGCGAAUUCUGCUGUAUAUCUC [A13C A47C], the self-cleavage worked out at 0.34. The result for UAACAGGGGGCCCCAGCAGAAGCGUUCACGUCGCAGCCCCUGUCAGAUUCUGGUGGAUCUGCGAAUUCUGCUGUAUAUCUC [A13C A56G] reads 0.65; that for UAACAGGGGGCCCCAGCAGAAGCGUUCACGUCGCAGCCCCUGUCAGAUUCUGGUGUAUCUGCGAAUUCUGCUGUAUAUCUC [A13C A56U], 0.48; that for UAACAGGGGGCCCCAGCAGAAGCGUUCACGUCGCAGCCCCUGUCAGAUUCUGGUGAAUCUGCUAAUUCUGCUGUAUAUCUC [A13C G63U], 0.97. The result for UAACAGGGGGCCCCAGCAGAAGCGUUCACGUCGCAGCCCCUGUAAGAUUCUGGUGAAUCUGCGAAUUCUGCUGUAUAUCUC [A13C C44A] reads 0.42.

As to UAACAGGGGGCCCCAGCAGAAGCGUUCACGUCGCAGCCCCUGUUAGAUUCUGGUGAAUCUGCGAAUUCUGCUGUAUAUCUC [A13C C44U], the self-cleavage worked out at 0.59. As for UAACAGGGGGCCCCAGCAGAAGCGUUCACGUCGCAGCCCCUGUCAGAUUCUGGUGAAUCUGCGAAUUUUGCUGUAUAUCUC [A13C C68U], the self-cleavage amounted to 1.07.

On to UAACAGGGGGCCCCAGCAGAAGCGUUCACGUCGCAGCCCCUGUCAGAUUCUGGUGAAUCUGCGAAUUCUACUGUAUAUCUC [A13C G70A], for which the self-cleavage stood at 0.44. UAACAGGGGGCCCCAGCAGAAGCGUUCACGUCGCAGCCCCUGUCAGAUUCUGGUGAAUCGGCGAAUUCUGCUGUAUAUCUC [A13C U60G]: the self-cleavage is 0.57. The result for UAACAGGGGGCCCCAGCAGAAGCGUUCACGUCGCAGCCCCUGUCAGAUUCUGGUGAAUCCGCGAAUUCUGCUGUAUAUCUC [A13C U60C] reads 0.51; that for UAACAGGGGGCCCCAGCAGAAGCGUUCACGUCGCAGCCCCUGUCAGAUUCUGGUGAAUCAGCGAAUUCUGCUGUAUAUCUC [A13C U60A], 0.52; that for UAACAGGGGGCCCCAGCAGAAGCGCUCACGUCGCAGCCCCUGUCAGAUUCUGGUGAAUCUGCGAAUUCUGCUGUAUAUCUC [A13C U25C], 0.31. For UAACAGGGGGCCCCAGCAGAAGCGAUCACGUCGCAGCCCCUGUCAGAUUCUGGUGAAUCUGCGAAUUCUGCUGUAUAUCUC [A13C U25A] the value was 0.34; for UAACAGGGGGCCGCAGCAGAAGCGUUCACGUCGCAGCCCCUGUCAGAUUCUGGUGAAUCUGCGAAUUCUGCUGUAUAUCUC [A13G], 0.94.

As for UAACAGGGGGCCCCAGCAGAAGCGUUCACGUCGCAGCCCCUGUCAGAUUCUGGUGAAUCUGCGAGUUCUGCUGUAUAUCUC [A13C A65G], the self-cleavage stood at 0.32. For UAACAGGGGGCCCCAGCAGAAGCGUUCACGUCGCAGCCCCUGUCAGAUUCAGGUGAAUCUGCGAAUUCUGCUGUAUAUCUC [A13C U51A] the value was 1.01. For UAACAGGGGGCCCCAGCAGAAGCGUUCACGUCGCAGCCCCUGUCAGAUUCGGGUGAAUCUGCGAAUUCUGCUGUAUAUCUC [A13C U51G] the value was 0.88; for UAACAGGGGGCCCCAGCAGAAGCGUUCACGUCGCAGCCCCUGUCAGAUUCCGGUGAAUCUGCGAAUUCUGCUGUAUAUCUC [A13C U51C], 1.11.

As to UAACAGGGGGCCCCAGCAGAAGCGUUCACGUCGCAGCCCCUGUCAGAUUCUGGUGAAUCUGCGAAUUCUGUUGUAUAUCUC [A13C C71U], the self-cleavage came out at 0.33. The result for UAACAGGGGGCCCCAGCAGAAGCGUUCACGUCGCAGCCCCUGUCAGAUUCUGGUGAAUCUGCGAAUUCUGCCGUAUAUCUC [A13C U72C] reads 0.83; that for UAACAGGGGGCCCCAGCAGAAGCGUUCACGUCGCAGCCCCUGUCAGAUUCUGGUGAAUCUGCGAAUUCUGCAGUAUAUCUC [A13C U72A], 0.24; that for UAACAGGGGGCCCCAGCAGAAGCGUUCACGUCGCAGCCCCUGUCAGAUUCUGGUGAAUCUGCGAAUCCUGCUGUAUAUCUC [A13C U67C], 0.19. The result for UAACAGGGGGCCCCAGCAGAAGCGUUCACGUCGCAGCCCCUGUCAGAUUCUGGUGAAUCUGCGAAUUCUGCUGUAAAUCUC [A13C U76A] reads 1.18; that for UAACAGGGGGCCCCAGCAGAAGCGUUCACGUCGCAGCCCCUGUCAGAUUCUGGUGAAUCUGCGAAUUCUGCUGUACAUCUC [A13C U76C], 0.75. Take UAACAGGGGGCCCCAGCAGAAGCGUUCACGUCGCACCCCCUGUCAGAUUCUGGUGAAUCUGCGAAUUCUGCUGUAUAUCUC [A13C G36C]: the self-cleavage was 0.35. The result for UAACAGGGGGCCCCAGCAGAAGCGUUCACGUCGCAACCCCUGUCAGAUUCUGGUGAAUCUGCGAAUUCUGCUGUAUAUCUC [A13C G36A] reads 0.26; that for UAACAGGGGGCCCCAGCAGAAACGUUCACGUCGCAGCCCCUGUCAGAUUCUGGUGAAUCUGCGAAUUCUGCUGUAUAUCUC [A13C G22A], 0.19; that for UAACAGGGGGCCCCAGCAGAAGCGUUCACGUAGCAGCCCCUGUCAGAUUCUGGUGAAUCUGCGAAUUCUGCUGUAUAUCUC [A13C C32A], 0.29. UAACAGGGGGCCCCAGCAGAAGCGUUCACGUCGCAGCCCCUGUCAGAUUCUGGUGAAUCUGCGAAUUCUGCUGUAUAUCCC [A13C U80C]: the self-cleavage is 1.14.
